In US9933424 (SEOUL NATIONAL UNIVERSITY HOSPITAL, dated 2018):

Tests used:
[1] = biological target: T1, adenylyl cyclase-associated protein 1 (CAP1), human, of THP-1 cells (human, UniProt Q01518 2-475); test: western blot of cell lysates probed with mFc-human resistin as primary antibody, anti-mFc-HRP detection
T1 construct: Endogenous full-length protein in THP-1 lysates or on THP-1 cells; also called human resistin receptor; 55 kDa protein

[2] = biological target: T1, adenylyl cyclase-associated protein 1 …; test: conclusion of Example 4 (western blot, immunofluorescence, flow cytometry on THP-1 cells)

T1 sequence (Q01518 2-475 limits assumed): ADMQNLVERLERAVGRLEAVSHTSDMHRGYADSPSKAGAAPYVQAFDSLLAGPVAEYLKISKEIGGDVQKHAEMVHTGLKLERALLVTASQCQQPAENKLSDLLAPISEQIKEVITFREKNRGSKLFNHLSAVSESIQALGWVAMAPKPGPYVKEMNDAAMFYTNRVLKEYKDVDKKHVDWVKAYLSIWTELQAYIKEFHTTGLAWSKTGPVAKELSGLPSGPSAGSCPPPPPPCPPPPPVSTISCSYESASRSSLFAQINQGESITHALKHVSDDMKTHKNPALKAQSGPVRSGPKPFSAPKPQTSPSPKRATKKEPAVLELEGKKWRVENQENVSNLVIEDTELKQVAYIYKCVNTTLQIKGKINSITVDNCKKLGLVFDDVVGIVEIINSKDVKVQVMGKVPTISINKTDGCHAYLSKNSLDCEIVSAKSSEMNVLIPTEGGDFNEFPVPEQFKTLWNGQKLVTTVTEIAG

binding result [1]	binding result [2]	Binder
binds		mFc-human resistin fusion protein (mouse Fc region of immunoglobulin fused to the N-terminus of human resistin) (Fc fusion, UniProt Q9HD89 19-108, looked up, Expressed in HEK293-F cells from pcDNA3.1 and purified on mFc-specific beads; also called mFc-human resistin protein; mFc human resistin recombinant protein; not shown: mouse immunoglobulin Fc region (mFc); prot) KTLCSMEEAINERIQEVAGSLIFRAISSIGLECQSVTSRGDLATCPRGFAVTGCTCGSACGSWDVRAETTCHCQCAGMDWTGARCCRVQP
	binds	recombinant human resistin protein (ligand, UniProt Q9HD89 19-108, looked up, also called rhResistin; human recombinant resistin) KTLCSMEEAINERIQEVAGSLIFRAISSIGLECQSVTSRGDLATCPRGFAVTGCTCGSACGSWDVRAETTCHCQCAGMDWTGARCCRVQP
